In US20110135639A1 (Human Genome Sciences, published 2011):

Assays:
[1] = biological target: T1, soluble form of Neutrokine-alpha (amino acids 134 to 285 of SEQ ID NO:2) (human, UniProt Q9Y275 134-285); experiment: capture of Neutrokine-alpha from solution
T1 construct: also called rNeutrokine-alpha; BLyS

[2] = biological target: T2, membrane-bound form of Neutrokine-alpha (human, UniProt Q9Y275 1-285); experiment: binding to THP-1 cells
T2 construct: also called Neutrokine-alpha on the surface of THP-1 cells; cell surface Neutrokine-alpha
T2 sequence (Q9Y275 whole entry): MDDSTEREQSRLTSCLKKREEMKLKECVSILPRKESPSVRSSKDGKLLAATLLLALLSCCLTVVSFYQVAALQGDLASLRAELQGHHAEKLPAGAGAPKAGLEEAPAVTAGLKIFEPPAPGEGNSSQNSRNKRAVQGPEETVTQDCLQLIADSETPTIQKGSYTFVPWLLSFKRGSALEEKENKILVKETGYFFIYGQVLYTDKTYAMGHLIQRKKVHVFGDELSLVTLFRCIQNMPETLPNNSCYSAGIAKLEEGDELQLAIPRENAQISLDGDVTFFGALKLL

[3] = biological target: T3, peptide comprising amino acid residues Val-227 to Asn-242 of SEQ ID NO:2 (human); experiment: epitope mapping with peptide
T3 peptide: VTLFRCIQNMPETLPN

Measured: binding result

T1 sequence (Q9Y275 134-285): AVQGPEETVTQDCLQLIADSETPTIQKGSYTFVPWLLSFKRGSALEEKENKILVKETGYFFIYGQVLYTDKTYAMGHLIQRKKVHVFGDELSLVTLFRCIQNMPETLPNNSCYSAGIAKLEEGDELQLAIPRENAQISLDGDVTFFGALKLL

B1: murine monoclonal antibody 15C10 (antibody, V domains shown)
VH: QVQLQQSGAELARPGASVKMSCRASGYTFTTYTMHWVKQRPGQGLEWIGYIIPRNTYTTFNQKFKNKATLTADKSSNTAYMQLSSLTSEDSAVYYCARHYGGGYWFFDVWGAGTTVTVSS
VL: ELVMTQTPASLAVSLGQRATISCRGSESVDSYGNSFMHWYQQKPGQPPKLLIYRASNLESGIPARFSGSGSRTDFTLTIYPVEADDVATYYCQQSNDDPMYTFGGGTKLEIKR
notes: A chimeric form with human IgG1 and kappa constant regions also exists (PTA-3794); also called hybridoma ATCC PTA-1158
binds: all assays above
